From publication PMC3320896

Molecular target: recombinant Hepatitis B surface antigen (rHBsAg) virus-like particle, S form of HBsAg (Hepatitis B virus)
Test: cryo-EM structure; redox-treated rHBsAg VLPs in vitrified ice; 3D reconstruction with octahedral symmetry imposed, nominal resolution ~1.5 nm (FSC0.5); monomers counted from the volume of segmented protein density

Q: How did the stoichiometry N (protein monomers per particle) turn out when “recombinant Hepatitis B surface antigen (rHBsAg) virus-like particle, S form of HBsAg (natural protein)” was run?
A: 96
